{"source": "patent US20030219857", "key": {"[1]": {"target": "bovine serum albumin (BSA), native (UniProt P02769)", "sequence (P02769 25-607)": "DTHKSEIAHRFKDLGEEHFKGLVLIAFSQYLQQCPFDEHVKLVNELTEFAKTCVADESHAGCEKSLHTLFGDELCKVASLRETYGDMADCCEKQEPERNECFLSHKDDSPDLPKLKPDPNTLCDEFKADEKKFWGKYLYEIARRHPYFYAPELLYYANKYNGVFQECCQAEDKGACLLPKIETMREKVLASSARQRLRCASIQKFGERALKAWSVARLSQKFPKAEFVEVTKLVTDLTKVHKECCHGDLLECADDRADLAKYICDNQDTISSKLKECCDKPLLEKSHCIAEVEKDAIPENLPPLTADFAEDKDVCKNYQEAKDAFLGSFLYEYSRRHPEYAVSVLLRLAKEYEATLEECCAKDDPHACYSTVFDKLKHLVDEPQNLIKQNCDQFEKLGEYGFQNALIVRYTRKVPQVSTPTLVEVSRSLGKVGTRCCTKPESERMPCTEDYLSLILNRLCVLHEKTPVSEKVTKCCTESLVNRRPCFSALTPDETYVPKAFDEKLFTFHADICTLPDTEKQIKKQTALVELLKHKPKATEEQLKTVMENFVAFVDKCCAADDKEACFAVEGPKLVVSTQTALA"}, "glucose oxidase": {"target": "glucose oxidase (UniProt P13006)", "sequence (P13006 23-605)": "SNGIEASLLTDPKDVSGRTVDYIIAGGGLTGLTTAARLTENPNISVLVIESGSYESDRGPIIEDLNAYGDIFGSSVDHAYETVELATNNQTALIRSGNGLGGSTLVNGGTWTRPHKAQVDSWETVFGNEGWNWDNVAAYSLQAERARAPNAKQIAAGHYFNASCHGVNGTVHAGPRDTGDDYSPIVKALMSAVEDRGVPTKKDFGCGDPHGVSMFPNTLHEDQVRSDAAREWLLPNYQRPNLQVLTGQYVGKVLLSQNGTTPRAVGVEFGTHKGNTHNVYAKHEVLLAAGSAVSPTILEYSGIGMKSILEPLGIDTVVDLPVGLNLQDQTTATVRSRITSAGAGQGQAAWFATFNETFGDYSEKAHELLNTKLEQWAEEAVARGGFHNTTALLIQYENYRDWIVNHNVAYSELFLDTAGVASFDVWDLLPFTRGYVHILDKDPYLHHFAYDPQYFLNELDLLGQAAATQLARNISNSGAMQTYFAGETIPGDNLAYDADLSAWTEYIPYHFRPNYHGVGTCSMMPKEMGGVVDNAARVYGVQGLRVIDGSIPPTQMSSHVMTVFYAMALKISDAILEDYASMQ"}, "[2]": {"target": "modified bovine serum albumin (denatured and partially refolded) (UniProt P02769)", "sequence (P02769 25-607)": "as the sequence (P02769 25-607) above"}, "[3]": {"tested_on": "modified histone H3 protein (denatured and partially refolded)"}, "[4]": {"target": "modified ovalbumin (denatured and partially refolded) (UniProt P01012)", "sequence (P01012 2-386)": "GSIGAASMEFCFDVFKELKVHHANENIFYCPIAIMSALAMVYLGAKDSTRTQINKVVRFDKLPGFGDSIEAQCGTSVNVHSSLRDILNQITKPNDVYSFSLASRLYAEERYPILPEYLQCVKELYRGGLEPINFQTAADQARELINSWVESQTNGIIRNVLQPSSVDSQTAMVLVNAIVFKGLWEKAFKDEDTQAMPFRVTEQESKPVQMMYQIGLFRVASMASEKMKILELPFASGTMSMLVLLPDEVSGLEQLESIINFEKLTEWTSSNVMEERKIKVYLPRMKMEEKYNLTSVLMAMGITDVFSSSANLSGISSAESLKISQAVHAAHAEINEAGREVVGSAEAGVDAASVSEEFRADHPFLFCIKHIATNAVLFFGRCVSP"}, "[5]": {"tested_on": "myelin basic protein (MBP)", "sequence (P02687 whole entry)": "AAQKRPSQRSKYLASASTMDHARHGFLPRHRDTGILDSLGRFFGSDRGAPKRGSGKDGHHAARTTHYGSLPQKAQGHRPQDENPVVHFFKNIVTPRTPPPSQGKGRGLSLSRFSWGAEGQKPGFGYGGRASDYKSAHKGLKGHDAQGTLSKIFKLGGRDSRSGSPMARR"}, "ovalbumin, native": {"target": "ovalbumin, native (UniProt P01012)", "sequence (P01012 2-386)": "as the sequence (P01012 2-386) above"}, "[6]": {"tested_on": "recombinant serum albumin", "sequence (P02768 25-609)": "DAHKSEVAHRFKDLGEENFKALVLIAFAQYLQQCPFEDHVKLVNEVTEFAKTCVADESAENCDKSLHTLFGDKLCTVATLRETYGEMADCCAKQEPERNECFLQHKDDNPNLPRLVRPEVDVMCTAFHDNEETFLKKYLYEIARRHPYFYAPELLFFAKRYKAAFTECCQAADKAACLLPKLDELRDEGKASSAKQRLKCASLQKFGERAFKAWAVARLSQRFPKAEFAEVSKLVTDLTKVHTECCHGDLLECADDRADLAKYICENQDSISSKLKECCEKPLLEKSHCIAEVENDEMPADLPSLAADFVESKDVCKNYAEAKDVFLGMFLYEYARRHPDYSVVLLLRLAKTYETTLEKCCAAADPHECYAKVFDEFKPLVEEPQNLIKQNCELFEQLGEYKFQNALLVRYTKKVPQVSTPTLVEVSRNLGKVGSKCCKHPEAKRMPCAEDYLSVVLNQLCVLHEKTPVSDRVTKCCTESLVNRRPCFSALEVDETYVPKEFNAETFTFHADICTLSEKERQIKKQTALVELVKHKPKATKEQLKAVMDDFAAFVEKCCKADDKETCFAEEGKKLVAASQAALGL"}, "[7]": {"tested_on": "synthetic Bovine Serum Albumin peptide 5 (BSA5)"}, "β-casein": {"target": "T1, β-casein (UniProt P02666)", "T1 sequence": "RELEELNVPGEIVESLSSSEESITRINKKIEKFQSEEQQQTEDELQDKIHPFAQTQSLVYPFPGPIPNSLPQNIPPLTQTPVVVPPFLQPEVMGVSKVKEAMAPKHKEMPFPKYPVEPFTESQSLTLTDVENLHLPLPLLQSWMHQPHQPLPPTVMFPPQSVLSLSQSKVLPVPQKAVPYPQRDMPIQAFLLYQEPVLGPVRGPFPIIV"}}, "data": [{"protein": "recombinant 6X-His-TGase fusion protein of Streptomyces mobaraensis ATCC 29032 (enzyme, UniProt P81453 77-407, looked up, N-terminal 6xHis tag) Protein-glutamine gamma-glutamyltransferase: DSDDRVTPPAEPLDRMPDPYRPSYGRAETVVNNYIRKWQQVYSHRDGRKQQMTEEQREWLSYGCVGVTWVNSGQYPTNRLAFASFDEDRFKNELKNGRPRSGETRAEFEGRVAKESFDEEKGFQRAREVASVMNRALENAHDESAYLDNLKKELANGNDALRNEDARSPFYSALRNTPSFKERNGGNHDPSRMKAVIYSKHFWSGQDRSSSADKRKYGDPDAFRPAPGTGLVDMSRDRNIPRSPTSPGEGFVNFDYGWFGAQTEADADKTVWTHGNHYHAPNGSLGAMHVYESKFRNWSEGYSDFDRGAYVITFIPKSWNTAPDKVKQGWP", "values": [{"measurement": "cross-linking of native non-substrate proteins", "setting": "[1]", "value": "there was no cross-linking even in the presence of a large amount of the purified recombinant transglutaminase fusion proteins in the activation solution"}, {"measurement": "cross-linking of native non-substrate proteins", "setting": "glucose oxidase", "value": "there was no cross-linking even in the presence of a large amount of the purified recombinant transglutaminase fusion proteins in the activation solution"}, {"measurement": "cross-linking of native non-substrate proteins", "setting": "histone protein, native", "value": "there was no cross-linking even in the presence of a large amount of the purified recombinant transglutaminase fusion proteins in the activation solution"}, {"measurement": "cross-linking seen on SDS-PAGE", "setting": "histone protein, native", "value": "complete and partial cross-linking was both observed for native histine H3 protein under the condition tested"}, {"measurement": "cross-linking seen on SDS-PAGE", "setting": "[2]", "value": "only the reactions containing the modified protein species of BSA, histine H3 protein, glucose oxidase, and ovalbumin were cross-linked by the purified recombinant SM TGase"}, {"measurement": "cross-linking seen on SDS-PAGE", "setting": "[3]", "value": "only the reactions containing the modified protein species of BSA, histine H3 protein, glucose oxidase, and ovalbumin were cross-linked by the purified recombinant SM TGase"}, {"measurement": "cross-linking seen on SDS-PAGE", "setting": "[4]", "value": "only the reactions containing the modified protein species of BSA, histine H3 protein, glucose oxidase, and ovalbumin were cross-linked by the purified recombinant SM TGase"}, {"measurement": "cross-linking of native non-substrate proteins", "setting": "[5]", "value": "there was no cross-linking even in the presence of a large amount of the purified recombinant transglutaminase fusion proteins in the activation solution"}, {"measurement": "cross-linking of native non-substrate proteins", "setting": "ovalbumin, native", "value": "there was no cross-linking even in the presence of a large amount of the purified recombinant transglutaminase fusion proteins in the activation solution"}, {"measurement": "cross-linking seen on SDS-PAGE", "setting": "[6]", "value": "the cross-linking reaction containing recombinant serum albumin revealed a mixture of very high molecular weight polymers of different length"}, {"measurement": "cross-linking seen on SDS-PAGE, rising amounts of SM TGase", "setting": "[7]", "value": "increased amount of recombinant SM TGase corresponding to an increase in cross-linked (CL) BSA5 peptide, which run as a large molecular weight polymer on the top of the separating gel"}, {"measurement": "cross-linking seen on SDS-PAGE, 1, 2 and 3 hours", "setting": "β-amyloid peptide (1-42)", "value": "The β-amyloid (1-42) peptide can be cross-linked by the recombinant transglutaminase as shown as a smear of a mixture of cross-linked peptides on the top of the separating gel and the disappearance of the peptide bands at the bottom of the SDS-PAGE"}, {"measurement": "cross-linking of a mixture of β-casein and glucose oxidase, SDS-PAGE", "setting": "β-casein", "value": "both protein species can be cross-linked by the purified recombinant SM TGase, as indicated by the disappearance of the two monomer bands"}, {"measurement": "cross-linking of β-casein seen on SDS-PAGE, 0 mM DTT", "setting": "β-casein", "value": "in the absence of DTT (lane 1 and 2), the recombinant SM TGase had no cross-linking activity on β-casein"}, {"measurement": "cross-linking of β-casein seen on SDS-PAGE, about 2 mM DTT", "setting": "β-casein", "value": "the recombinant SM TGase was activated and β-casein run as a mixture of cross-linked polymer and monomer"}, {"measurement": "cross-linking of β-casein seen on SDS-PAGE, about 10 mM DTT", "setting": "β-casein", "value": "the catalytic cross-linking activity of SM TGase resulted in cross-linking of all detectable β-casein substrates in the reaction"}, {"measurement": "cross-linking seen on SDS-PAGE", "setting": "β-casein", "value": "the cross-linked (CL) β-casein migrated as a smear on the SDS-PAGE gel indicating a mixture of high molecular weight polymers of different length"}]}]}
